Measurements as given in PMC10457384 (2023).

Tests used:
Max 37-83 [1] = target: T1, Max 37-83 (Homo sapiens, UniProt P61244); experiment: single-molecule SiNW-FET electrical recording (pH 6.5)
T1 chain: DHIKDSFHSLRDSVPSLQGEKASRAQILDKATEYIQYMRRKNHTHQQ

Max 37-83 [2] = target: T1, Max 37-83; experiment: single-molecule SiNW-FET electrical recording (pH 7.4, 37 °C)

Kd (Max 37-83 [1]): 0.067 µM
Kd (Max 37-83 [2]): 0.205 µM
B1: c-Myc 370-414 (peptide)
chain: KRRTHNVLERQRRNELKRSFFALRDQIPELENNEKAPKVVILKKA
modifications: C-terminal cysteine added to c-Myc, immobilized on nanowire
